Target: CX3CR1 (UniProt P49238)
Chain of UniProt P49238 (P49238 whole entry): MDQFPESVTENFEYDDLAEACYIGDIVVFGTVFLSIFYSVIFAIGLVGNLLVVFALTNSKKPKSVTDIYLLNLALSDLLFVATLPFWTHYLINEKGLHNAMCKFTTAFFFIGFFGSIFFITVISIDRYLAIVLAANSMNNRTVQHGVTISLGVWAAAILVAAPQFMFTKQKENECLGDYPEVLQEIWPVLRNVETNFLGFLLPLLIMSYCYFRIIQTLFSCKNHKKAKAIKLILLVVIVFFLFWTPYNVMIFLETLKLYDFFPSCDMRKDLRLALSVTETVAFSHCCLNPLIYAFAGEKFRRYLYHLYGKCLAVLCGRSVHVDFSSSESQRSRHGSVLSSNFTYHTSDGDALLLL

- fold decrease in receptor binding affinity against sFKN: 10 fold
Substance: chemokine domain-only peptide of fractalkine (ckFKN) (domain or fragment)

— article PMC6628566
